These results are taken from article PMC9433327.

Read-outs that look alike come from different tables or passages of the source.

Assay [1] has as its target LRPL-1 (cDNA lacking the signal peptide) (C. elegans). Briefly: SPR; LRPL-1 biotinylated and captured on a Streptavidin chip, Biacore X100; DMA-1 ectodomain as analyte at 78 nM to 10 µM; HBS (10 mM HEPES pH 7.2, 150 mM NaCl) with 0.05% Tween-20 and 0.1% BSA; kinetic fit and steady-state fit (Langmuir 1:1). On the technique in general: SPR reads the build-up and loss of mass on a sensor chip optically.

For assay [2] the target is unchanged. The assay is described as above. This is another data set of the same source.

On to “DMA-1 ectodomain (amino acids Leu20 to Leu507) (domain or fragment)”, for which the Kd in assay [1] is 6.9 µM. In assay [2], the Kd turned out to be 3.9 µM, the off-rate (koff) came to 0.018 s⁻¹ and the kon was determined as 4600 M⁻¹ s⁻¹.

A word on the Kd: it is the concentration at which binding is half-saturated. A lower Kd goes with tighter binding. The koff is a measure of how fast the partners let go of each other. A higher koff goes with a short-lived complex. A word on the kon: it is a measure of how fast the partners come together. Read a low kon as slower complex formation.
